Laboratory results taken from patent publication US20180092975A1.

How the values were obtained:
[1] = target: cyno PD-1 expressed on cells (cynomolgus monkey) (UniProt B0LAJ3); assay: flow cytometry on CHO cells expressing cyno PD-1, detection with anti-human IgG Fc, PE GeoMFI; set-up: unit not given here
[2] = target: human PD-1 expressed on cells (human) (UniProt Q15116); assay: flow cytometry on CHO cells expressing human PD-1, detection with anti-human IgG Fc, PE GeoMFI; set-up: unit not given here
Chain of UniProt Q15116 (Q15116 25-198 limits assumed): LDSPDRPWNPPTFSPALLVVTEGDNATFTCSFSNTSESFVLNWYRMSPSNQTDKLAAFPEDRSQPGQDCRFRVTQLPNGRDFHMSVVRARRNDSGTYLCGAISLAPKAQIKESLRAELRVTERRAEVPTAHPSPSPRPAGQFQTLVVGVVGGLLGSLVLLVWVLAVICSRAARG

Chain of UniProt B0LAJ3 (B0LAJ3 entry or part of it limits assumed): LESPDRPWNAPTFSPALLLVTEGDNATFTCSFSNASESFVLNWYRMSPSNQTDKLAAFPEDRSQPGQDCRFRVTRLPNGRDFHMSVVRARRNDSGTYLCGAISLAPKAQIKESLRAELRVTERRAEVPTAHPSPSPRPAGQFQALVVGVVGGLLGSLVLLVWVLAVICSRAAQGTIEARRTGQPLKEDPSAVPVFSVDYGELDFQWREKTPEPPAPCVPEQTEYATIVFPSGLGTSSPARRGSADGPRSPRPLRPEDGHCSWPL

## huIgG1 Fc
[1]
  LogEC50: -6.89
[2]
  LogEC50: -7.75
